Assay results reported in PMC11106487.
“And” between values parts separate entries of the source, which are not always exact repeats. Identical values can stand only once.

Legend:
[1] = target: GFP-FR, stably expressed in CHO cells; assay: number and brightness (N&B); live CHO cells, 2 days in culture, cell surface imaged at the cell periphery; untreated control
[2] = target: GFP-FR (GFP fused to the GPI attachment signal of the folate receptor), expressed in MDCK cells; assay: number and brightness (N&B); live polarized MDCK cells, Golgi pool: apical trypsin 25 ug/mL for 25 min to remove the surface pool, untreated (CTR), imaged at the Golgi level
[3] = target: GFP-FR (GFP fused to the GPI attachment signal of the folate receptor), expressed in MDCK cells; assay: number and brightness (N&B); live polarized MDCK cells on filters, apical surface, CO2-independent medium pH 7.4; control cells and cells treated with latrunculin A (6 uM, 5 min), jasplakinolide (5 uM, 5 min) or blebbistatin (50 uM, 90 min); also after EGTA followed by calcium replenishment for 3 h; B-values ascribed to oligomer classes by a calibration curve of monomeric, dimeric and trimeric GFP
[4] = target: GFP-FR (GFP fused to the GPI attachment signal of the folate receptor), expressed in MDCK cells; assay: number and brightness (N&B); live polarized MDCK cells, plasma membrane pool only: cycloheximide 90 min, then with or without EGTA still in the presence of cycloheximide

Row | brightness (B) [1] | stoichiometry N [1] | mean brightness (B), Golgi pool, control [2] | brightness (B) [3] | brightness (B) upon latrunculin A [3] | mean brightness (B), control of the EGTA experiment [3] | stoichiometry N [3] | mean brightness (B), plasma membrane pool, control [4] | mean brightness (B), plasma membrane pool, upon EGTA [4] | Substance
1 | 1.3 | 3 and 4 |  |  |  |  |  |  |  | GFP-FR, stably expressed in CHO cells
2 |  |  | 1.2 | 1.21 | 1.23 | 1.29 | 3 and 4 | 1.19 | 1.2 | GFP-FR (GFP fused to the GPI attachment signal of the folate receptor), expressed in MDCK cells
